Source: article PMC5677968, “Familial STAG2 germline mutation defines a new human cohesinopathy” (NPJ Genomic Medicine, 2017)
Square brackets hold non-standard residues; d marks the D form. Ends that are not written are not given here. pT = C[C@@H](OP(=O)(O)O)[C@H](N)C(=O)O

T1: STAG2(80–930)–SCC1(281–394) complex, WT (human, UniProt Q8N3U4-2 80-930; O60216 281-394)
T1 construct: STAG2 (SA2), human, residues 80-930, in pET28a; SCC1 (RAD21), human, residues 281-394, in pGEX-6p1; also called purified STAG2–SCC1 WT; SA2–SCC1 complex; source: E. coli, co-expressed, purified (Glutathione Sepharose 4B, PreScission cleavage, ion exchange, size exclusion)
T1 sequence (looked up) 1: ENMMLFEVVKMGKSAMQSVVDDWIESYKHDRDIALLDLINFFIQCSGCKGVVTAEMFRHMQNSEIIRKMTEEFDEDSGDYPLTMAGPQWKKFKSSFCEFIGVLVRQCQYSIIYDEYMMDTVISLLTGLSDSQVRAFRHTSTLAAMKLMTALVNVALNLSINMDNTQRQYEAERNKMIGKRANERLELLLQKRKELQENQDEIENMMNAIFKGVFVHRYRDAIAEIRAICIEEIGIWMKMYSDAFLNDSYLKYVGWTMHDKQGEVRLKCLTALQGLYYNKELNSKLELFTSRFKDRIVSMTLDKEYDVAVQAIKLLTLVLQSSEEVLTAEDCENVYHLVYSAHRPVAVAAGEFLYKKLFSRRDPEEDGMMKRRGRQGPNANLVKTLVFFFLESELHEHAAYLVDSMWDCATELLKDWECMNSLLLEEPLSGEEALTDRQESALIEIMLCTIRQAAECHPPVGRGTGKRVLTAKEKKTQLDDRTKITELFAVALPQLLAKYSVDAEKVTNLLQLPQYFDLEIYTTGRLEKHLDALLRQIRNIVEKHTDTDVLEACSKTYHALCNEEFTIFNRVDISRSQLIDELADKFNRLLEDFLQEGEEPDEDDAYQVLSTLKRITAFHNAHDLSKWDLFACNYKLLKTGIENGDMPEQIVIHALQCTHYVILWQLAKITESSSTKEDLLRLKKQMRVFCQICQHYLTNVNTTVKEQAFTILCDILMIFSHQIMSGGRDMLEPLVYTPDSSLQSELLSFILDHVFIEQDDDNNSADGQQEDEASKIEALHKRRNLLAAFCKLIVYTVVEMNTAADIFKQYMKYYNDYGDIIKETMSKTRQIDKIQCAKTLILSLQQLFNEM
T1 sequence (looked up) 2: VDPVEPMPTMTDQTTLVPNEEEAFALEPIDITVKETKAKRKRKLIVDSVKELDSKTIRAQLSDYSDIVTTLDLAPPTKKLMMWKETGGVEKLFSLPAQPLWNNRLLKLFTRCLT

T2: STAG2(80–930) p.Ser327Asn–SCC1(281–394) complex (human, UniProt Q8N3U4-2 80-930; O60216 281-394, p.Ser327Asn)
T2 construct: STAG2 (SA2), human, residues 80-930, patient germline variant p.Ser327Asn; SCC1 (RAD21), human, residues 281-394, in pGEX-6p1; The methods describe only the WT STAG2(80–930) vector; also called purified STAG2–SCC1 p.Ser327Asn; SA2–SCC1 p.Ser327Asn; source: E. coli, co-expressed, purified (Glutathione Sepharose 4B, PreScission cleavage, ion exchange, size exclusion)
T2 sequence (looked up) 1: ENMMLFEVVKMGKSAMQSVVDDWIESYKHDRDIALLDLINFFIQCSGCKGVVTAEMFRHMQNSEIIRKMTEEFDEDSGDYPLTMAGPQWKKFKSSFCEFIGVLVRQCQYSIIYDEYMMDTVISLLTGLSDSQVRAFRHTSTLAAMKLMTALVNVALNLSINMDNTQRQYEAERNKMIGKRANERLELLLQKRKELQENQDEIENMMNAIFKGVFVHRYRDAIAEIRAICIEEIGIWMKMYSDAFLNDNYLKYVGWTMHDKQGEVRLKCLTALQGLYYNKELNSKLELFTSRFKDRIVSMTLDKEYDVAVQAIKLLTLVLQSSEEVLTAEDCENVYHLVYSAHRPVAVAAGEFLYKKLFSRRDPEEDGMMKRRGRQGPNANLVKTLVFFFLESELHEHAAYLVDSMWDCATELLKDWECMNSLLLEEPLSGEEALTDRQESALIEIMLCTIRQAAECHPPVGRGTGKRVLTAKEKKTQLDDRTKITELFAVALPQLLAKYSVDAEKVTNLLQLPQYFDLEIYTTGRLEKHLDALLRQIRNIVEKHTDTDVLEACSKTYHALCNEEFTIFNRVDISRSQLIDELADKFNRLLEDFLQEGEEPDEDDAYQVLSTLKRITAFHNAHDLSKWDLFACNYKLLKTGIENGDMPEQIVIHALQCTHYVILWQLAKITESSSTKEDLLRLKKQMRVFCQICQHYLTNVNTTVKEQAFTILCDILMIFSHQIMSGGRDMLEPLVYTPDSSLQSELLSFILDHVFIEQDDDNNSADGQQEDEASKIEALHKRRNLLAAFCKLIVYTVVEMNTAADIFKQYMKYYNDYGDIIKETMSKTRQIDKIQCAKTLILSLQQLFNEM
T2 sequence (looked up) 2: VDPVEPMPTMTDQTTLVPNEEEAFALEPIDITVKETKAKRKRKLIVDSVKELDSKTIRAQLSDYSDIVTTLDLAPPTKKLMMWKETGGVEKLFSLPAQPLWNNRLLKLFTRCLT


Assays:
[1] = biological target: Myc-STAG2 p.Ser327Asn (human) (UniProt Q8N3U4); test: co-IP; anti-Myc beads, lysates of HeLa Tet-On cells transfected with Myc-STAG2 WT or mutants; 3 h at 4 °C; washes with lysis buffer containing 200 mM NaCl; blots for endogenous proteins
[2] = biological target: T1, STAG2(80–930)–SCC1(281–394) complex, WT; test: ITC; MicroCal iTC200, 20 °C; 20 uM STAG2(80–930)–SCC1(281–394) complex in the cell, titrated with 300 uM pSGO1 peptide; 20 mM Tris-HCl pH 7.7, 200 mM NaCl, 5 mM TCEP; conditions: both partners purified
[3] = biological target: T2, STAG2(80–930) p.Ser327Asn–SCC1(281–394) …; test: as above; conditions: both partners purified

Sequence of endogenous SMC1 (Q14683 whole entry): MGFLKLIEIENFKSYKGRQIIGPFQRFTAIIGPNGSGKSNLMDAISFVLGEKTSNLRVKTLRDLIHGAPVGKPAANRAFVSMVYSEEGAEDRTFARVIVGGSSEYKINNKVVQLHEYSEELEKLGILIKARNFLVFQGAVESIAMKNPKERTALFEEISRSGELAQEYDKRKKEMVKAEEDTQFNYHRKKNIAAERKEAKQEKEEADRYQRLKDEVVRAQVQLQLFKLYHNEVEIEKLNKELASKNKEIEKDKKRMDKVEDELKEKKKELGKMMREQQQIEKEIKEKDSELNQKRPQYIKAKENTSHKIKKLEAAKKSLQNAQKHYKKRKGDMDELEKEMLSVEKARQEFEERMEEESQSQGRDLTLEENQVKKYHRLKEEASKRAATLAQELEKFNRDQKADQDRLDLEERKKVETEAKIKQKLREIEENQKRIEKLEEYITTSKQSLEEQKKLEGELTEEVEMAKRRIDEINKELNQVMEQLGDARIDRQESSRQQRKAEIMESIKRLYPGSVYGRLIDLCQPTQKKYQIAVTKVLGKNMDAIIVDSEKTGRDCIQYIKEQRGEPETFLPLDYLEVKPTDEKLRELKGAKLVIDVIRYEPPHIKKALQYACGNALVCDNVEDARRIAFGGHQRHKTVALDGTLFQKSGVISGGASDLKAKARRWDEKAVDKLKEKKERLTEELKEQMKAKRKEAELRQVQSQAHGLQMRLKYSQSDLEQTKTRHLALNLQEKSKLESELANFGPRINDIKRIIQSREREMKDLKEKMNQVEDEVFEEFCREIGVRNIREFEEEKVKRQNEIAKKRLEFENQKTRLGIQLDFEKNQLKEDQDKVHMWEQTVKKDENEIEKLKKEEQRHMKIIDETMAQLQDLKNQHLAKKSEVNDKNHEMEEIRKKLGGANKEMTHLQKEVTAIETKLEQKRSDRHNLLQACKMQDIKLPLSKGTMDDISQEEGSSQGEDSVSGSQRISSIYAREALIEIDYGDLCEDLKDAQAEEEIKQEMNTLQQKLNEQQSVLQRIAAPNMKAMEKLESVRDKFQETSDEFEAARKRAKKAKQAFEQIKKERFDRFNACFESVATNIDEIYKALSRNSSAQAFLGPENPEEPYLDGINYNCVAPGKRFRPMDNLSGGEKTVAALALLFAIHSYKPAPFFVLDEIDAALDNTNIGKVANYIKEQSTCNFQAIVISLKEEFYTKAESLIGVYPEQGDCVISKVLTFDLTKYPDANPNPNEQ
Sequence of Myc-STAG2 p.Ser327Asn (human) (Q8N3U4 other isoform, or with tags, fused parts or gaps p.S327N): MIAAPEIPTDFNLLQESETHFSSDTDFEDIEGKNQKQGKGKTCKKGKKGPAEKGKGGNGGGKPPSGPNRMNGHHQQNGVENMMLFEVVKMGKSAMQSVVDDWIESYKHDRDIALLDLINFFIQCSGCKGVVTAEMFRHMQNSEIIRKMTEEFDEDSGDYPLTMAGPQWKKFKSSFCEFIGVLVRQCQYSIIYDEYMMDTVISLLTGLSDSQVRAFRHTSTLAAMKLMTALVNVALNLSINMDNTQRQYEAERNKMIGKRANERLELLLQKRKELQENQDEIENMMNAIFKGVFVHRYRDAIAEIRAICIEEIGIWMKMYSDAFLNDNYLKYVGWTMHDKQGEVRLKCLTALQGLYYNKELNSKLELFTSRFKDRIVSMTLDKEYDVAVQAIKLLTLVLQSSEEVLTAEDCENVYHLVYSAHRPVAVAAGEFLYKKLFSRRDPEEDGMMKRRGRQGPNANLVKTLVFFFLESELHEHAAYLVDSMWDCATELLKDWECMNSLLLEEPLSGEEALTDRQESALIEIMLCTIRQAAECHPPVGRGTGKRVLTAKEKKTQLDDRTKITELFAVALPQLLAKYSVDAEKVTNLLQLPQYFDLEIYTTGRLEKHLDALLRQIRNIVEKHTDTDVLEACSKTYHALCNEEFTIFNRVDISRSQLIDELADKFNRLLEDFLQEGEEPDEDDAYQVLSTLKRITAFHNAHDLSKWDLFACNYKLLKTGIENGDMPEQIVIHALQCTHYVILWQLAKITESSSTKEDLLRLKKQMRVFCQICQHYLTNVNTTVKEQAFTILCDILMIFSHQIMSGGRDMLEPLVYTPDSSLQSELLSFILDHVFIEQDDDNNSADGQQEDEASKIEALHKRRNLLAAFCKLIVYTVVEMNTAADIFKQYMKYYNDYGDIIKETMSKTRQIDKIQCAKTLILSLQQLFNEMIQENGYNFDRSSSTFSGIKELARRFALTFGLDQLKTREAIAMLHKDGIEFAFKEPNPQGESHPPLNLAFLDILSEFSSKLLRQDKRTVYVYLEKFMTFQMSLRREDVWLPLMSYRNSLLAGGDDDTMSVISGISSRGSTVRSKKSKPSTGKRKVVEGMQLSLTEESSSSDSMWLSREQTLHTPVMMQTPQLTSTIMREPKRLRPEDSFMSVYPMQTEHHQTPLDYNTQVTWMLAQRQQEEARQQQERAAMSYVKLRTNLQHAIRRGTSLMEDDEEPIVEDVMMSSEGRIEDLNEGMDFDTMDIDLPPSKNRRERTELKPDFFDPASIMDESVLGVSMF

| reduction of binding against WT [1] | Kd [2] | Kd [3] | Molecule |
| --- | --- | --- | --- |
| 50% | – | – | endogenous SMC1 (from UniProt Q14683 1-1233) (natural protein) |
| – | 230 nM | 290 nM | KSENKKTVPQKKMHKSVSSNDAYNFNLEEGVHL[pT]PFRQKVS (peptide, UniProt Q5FBB7 313-353, looked up, SGO1, human, residues 313-353; also called pSGO1; phospho-SGO1 peptide; source: synthetic peptide) [synthetic phospho-Thr346 SGO1 peptide containing residues 313–353 of human SGO1] |
